Measured values published in patent publication US10005846 (LIFEARC, dated 2018).

T1: rat TG2 (rat, UniProt Q9WVJ6 1-686, limits assumed)
T1 sequence: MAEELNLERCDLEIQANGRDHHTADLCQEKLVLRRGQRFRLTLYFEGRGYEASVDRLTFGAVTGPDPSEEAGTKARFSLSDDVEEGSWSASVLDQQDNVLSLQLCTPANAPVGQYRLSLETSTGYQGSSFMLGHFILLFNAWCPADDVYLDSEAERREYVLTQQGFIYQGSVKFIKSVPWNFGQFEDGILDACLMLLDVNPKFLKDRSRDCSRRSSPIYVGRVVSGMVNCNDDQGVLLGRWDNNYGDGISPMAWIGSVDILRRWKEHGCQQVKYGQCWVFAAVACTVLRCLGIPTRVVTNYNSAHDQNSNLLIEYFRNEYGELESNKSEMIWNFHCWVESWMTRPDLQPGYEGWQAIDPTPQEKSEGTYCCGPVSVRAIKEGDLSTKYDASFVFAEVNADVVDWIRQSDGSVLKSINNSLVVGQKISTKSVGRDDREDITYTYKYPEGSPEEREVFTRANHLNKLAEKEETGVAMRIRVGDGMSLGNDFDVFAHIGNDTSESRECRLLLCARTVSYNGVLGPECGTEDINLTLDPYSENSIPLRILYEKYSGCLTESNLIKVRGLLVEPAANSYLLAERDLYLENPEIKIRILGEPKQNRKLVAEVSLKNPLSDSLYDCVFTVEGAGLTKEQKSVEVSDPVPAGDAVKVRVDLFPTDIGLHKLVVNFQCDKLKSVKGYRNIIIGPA

T2: human transglutaminase type 2 (TG2) (human, UniProt P21980 1-687)
T2 construct: Recombinant full-length human TG2 (Zedira; cat; T002 in the Biacore work); Also used here for the endogenous TG2 of HepG2 lysate and HK-2 cells; also called hTG2; rhTG2
T2 sequence: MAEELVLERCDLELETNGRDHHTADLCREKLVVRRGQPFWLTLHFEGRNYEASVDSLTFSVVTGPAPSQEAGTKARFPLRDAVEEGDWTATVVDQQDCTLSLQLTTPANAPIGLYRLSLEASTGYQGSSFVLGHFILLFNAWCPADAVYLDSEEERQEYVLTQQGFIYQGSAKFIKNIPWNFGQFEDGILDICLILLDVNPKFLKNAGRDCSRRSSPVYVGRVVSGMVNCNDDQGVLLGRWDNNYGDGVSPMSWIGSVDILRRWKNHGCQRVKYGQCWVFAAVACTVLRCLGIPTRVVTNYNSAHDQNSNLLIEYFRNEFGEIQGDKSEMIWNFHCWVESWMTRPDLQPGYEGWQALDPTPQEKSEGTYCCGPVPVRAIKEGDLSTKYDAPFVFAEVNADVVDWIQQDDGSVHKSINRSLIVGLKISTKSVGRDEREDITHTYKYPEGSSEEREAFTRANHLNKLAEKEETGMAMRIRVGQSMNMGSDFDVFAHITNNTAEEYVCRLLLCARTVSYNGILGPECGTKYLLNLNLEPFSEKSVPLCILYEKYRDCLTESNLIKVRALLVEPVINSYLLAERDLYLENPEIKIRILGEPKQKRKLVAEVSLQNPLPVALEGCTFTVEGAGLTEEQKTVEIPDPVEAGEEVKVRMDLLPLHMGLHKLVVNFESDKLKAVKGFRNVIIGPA

B1: DH2 murine monoclonal antibody (antibody, V domains shown)
VH: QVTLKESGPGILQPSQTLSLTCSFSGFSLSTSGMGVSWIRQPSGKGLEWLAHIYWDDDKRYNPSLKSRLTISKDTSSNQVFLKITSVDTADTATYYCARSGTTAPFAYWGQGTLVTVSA
VL: QIVLTQSPAIMSASPGEKVTMTCSASSSVSYMYWYQQKPGSSPRLLIYDTSNLASGVPVRFSGSGSGTSYSLTISRMEAEDAATFYCQQWSSSPLTFGAGTKLELK
notes: Mouse hybridoma IgG; heavy chain amplified with primer MHCG2B, kappa light chain; also called mDH001
B2: cDD9001 chimeric antibody (murine DD9 variable regions) (antibody, human IgG1, V domains shown)
VH: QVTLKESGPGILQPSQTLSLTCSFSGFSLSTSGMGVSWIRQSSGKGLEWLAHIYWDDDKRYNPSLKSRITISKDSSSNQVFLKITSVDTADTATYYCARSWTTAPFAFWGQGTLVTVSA
VL: QIVLTQSPAIMSASPGEKVTMTCSASSSVDYMYWYQQKPGSSPRLLIYDTSNLASGVPVRFSGSGSGTSYSLTISRMGAEDAATYYCQQWNSSPLTFGAGTKLELK

Experiments:
[1] = target: T1, rat TG2; assay: cell-based or functional assay
[2] = target: T2, human transglutaminase type 2 (TG2); assay: ELISA on immobilised human TG2; r2 0.998; EC50 95% confidence range 0.1860 to 0.2368 [panel A]
Description: Antibody binding to human and cynomolgus monkey TG2 was determined in an ELISA assay. Clear polystyrene "Maxisorp" 96-well plates (Nunc) were coated with 50 ng purified human or cynomogulus monkey TG2 in 50 µl 0.05 M carbonate-bicarbonate buffer pH 9.6 at 4° C. overnight. Control wells were coated with 50 µl 100 µg/ml bovine serum albumin (BSA). Plates were washed 3× with 300 µl phosphate-buffered saline pH7.4 (PBS) containing 0.1% Tween 20 (PBST) and blocked with 300 µl 3% w/v Marvel skimmed milk in PBS for 1 hour at room temperature. After 3× wash with PBST, 50 µl protein-A purified chimeric or humanised anti-TG2 antibodies or human IgG1 kappa […] control antibody or CUB7402 (Abcam) were serially diluted 4-fold from a top concentration of 50 nM in PBS, and added to the plate in duplicate. […] After 3× washes with PBST, the plates were developed with 50 µl TMB substrate (Sigma) for 5 min at room temperature before stopping the reaction with 25 µl 0.5M H2SO4 and reading absorbance at 450 nm in a microtiter plate reader (BioTek EL808). Dose response curves were analysed and EC50 values and other statistical parameters determined using a 4-parameter logistical fit of the data (GraphPad Prism).

| Binder | IC50, 3H-putrescine incorporation assay [1] | IC50 ratio, 3H-putrescine incorporation assay (DH2 on rat TG2 against AB-1 on human TG2) [1] | IC50 ratio, 3H-putrescine incorporation assay (rat TG2 against human TG2, same antibody) [1] | EC50 [2] [nM] |
| --- | --- | --- | --- | --- |
| B1 | 0.000223 mg/ml of IgG (to inhibit 1 ng of TG2) | 38 fold less active than AB-1 against human TG2 | ~6 fold less active than against human TG2 | – |
| B2 | – | – | – | 0.21 |
